Reference: PMC9723622, “PARP1 proximity proteomics reveals interaction partners at stressed replication forks” (Nucleic Acids Research, 2022)

B1: His-GFP-tagged TPX2 full-length protein (recombinant) (natural protein, UniProt Q9ULW0 1-747, looked up)
chain: MSQVKSSYSYDAPSDFINFSSLDDEGDTQNIDSWFEEKANLENKLLGKNGTGGLFQGKTPLRKANLQQAIVTPLKPVDNTYYKEAEKENLVEQSIPSNACSSLEVEAAISRKTPAQPQRRSLRLSAQKDLEQKEKHHVKMKAKRCATPVIIDEILPSKKMKVSNNKKKPEEEGSAHQDTAEKNASSPEKAKGRHTVPCMPPAKQKFLKSTEEQELEKSMKMQQEVVEMRKKNEEFKKLALAGIGQPVKKSVSQVTKSVDFHFRTDERIKQHPKNQEEYKEVNFTSELRKHPSSPARVTKGCTIVKPFNLSQGKKRTFDETVSTYVPLAQQVEDFHKRTPNRYHLRSKKDDINLLPSKSSVTKICRDPQTPVLQTKHRARAVTCKSTAELEAEELEKLQQYKFKARELDPRILEGGPILPKKPPVKPPTEPIGFDLEIEKRIQERESKKKTEDEHFEFHSRPCPTKILEDVVGVPEKKVLPITVPKSPAFALKNRIRMPTKEDEEEDEPVVIKAQPVPHYGVPFKPQIPEARTVEICPFSFDSRDKERQLQKEKKIKELQKGEVPKFKALPLPHFDTINLPEKKVKNVTQIEPFCLETDRRGALKAQTWKHQLEEELRQQKEAACFKARPNTVISQEPFVPKKEKKSVAEGLSGSLVQEPFQLATEKRAKERQELEKRMAEVEAQKAQQLEEARLQEEEQKKEELARLRRELVHKANPIRKYQGLEIKSSDQPLTVPVSPKFSTRFHC
notes: TPX2, full length; also called recombinant TPX2; full-length TPX2; source: recombinant, purified
B2: His-GFP-tagged TPX2 N-terminal part (1–254 amino acids), recombinant (domain or fragment, UniProt Q9ULW0 1-254, looked up)
chain: MSQVKSSYSYDAPSDFINFSSLDDEGDTQNIDSWFEEKANLENKLLGKNGTGGLFQGKTPLRKANLQQAIVTPLKPVDNTYYKEAEKENLVEQSIPSNACSSLEVEAAISRKTPAQPQRRSLRLSAQKDLEQKEKHHVKMKAKRCATPVIIDEILPSKKMKVSNNKKKPEEEGSAHQDTAEKNASSPEKAKGRHTVPCMPPAKQKFLKSTEEQELEKSMKMQQEVVEMRKKNEEFKKLALAGIGQPVKKSVSQV
notes: also called TPX2_254only; source: recombinant, purified

Target: T1, recombinant PARP1 (human, UniProt P09874 1-1014)
T1 construct: PARP1, recombinant; also called purified PARP1; source: recombinant, purified
Assay: pull-down; His-GFP-TPX2 proteins immobilised on GFP-Trap beads, equimolar recombinant PARP1 added, 2 h 4°C; 20 mM Tris-HCl pH 7.5, 250 mM NaCl, 0.2% glycerol, 0.2% Triton X-100; Western blot
Conditions: both partners purified

T1 sequence (P09874 whole entry): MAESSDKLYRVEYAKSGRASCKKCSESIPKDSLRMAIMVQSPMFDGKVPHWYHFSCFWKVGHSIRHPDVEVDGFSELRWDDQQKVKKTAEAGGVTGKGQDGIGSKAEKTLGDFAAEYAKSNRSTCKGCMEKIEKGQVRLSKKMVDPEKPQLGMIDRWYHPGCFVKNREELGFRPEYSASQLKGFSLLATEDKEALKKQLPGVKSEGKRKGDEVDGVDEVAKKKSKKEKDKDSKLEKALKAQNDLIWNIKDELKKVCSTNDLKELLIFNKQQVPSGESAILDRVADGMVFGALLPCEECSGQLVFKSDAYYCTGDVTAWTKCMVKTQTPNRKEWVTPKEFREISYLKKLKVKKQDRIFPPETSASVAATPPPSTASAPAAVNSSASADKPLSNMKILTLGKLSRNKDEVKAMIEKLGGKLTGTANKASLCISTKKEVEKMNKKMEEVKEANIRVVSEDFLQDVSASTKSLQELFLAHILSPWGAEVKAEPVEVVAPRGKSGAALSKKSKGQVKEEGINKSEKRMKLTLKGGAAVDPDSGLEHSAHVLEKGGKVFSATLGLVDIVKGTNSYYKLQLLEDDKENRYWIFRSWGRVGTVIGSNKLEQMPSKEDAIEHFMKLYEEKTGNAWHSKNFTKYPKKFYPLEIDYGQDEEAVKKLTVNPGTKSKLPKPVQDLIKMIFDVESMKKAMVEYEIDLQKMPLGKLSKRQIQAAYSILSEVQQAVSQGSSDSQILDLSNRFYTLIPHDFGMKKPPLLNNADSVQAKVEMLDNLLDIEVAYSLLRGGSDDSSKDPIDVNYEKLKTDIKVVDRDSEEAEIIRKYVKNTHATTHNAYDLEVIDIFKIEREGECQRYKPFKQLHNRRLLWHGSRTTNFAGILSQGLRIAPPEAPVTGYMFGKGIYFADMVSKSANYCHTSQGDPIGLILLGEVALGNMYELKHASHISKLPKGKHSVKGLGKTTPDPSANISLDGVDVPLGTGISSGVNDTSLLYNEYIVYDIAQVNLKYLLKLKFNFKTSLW

Binder	binding result
B1	binds
B2	binds
